First the molecules themselves.
B1: MBP^198–265 (domain or fragment)
chain: not shown
B2: SecB (natural protein)
chain: MSEQNNTEMTFQIQRIYTKDISFEAPNAPHVFQKDWQPEVKLDLDTASSQLADDVYEVVLRVTVTASLGEETAFLCEVQQGGIFSIAGIEGTQMAHCLGAYCPNILFPYARECITSMVSRGTFPQLNLAPVNFDALFMNYLQQQAGEGTEEHQDA
B3: triple mutant SecB (SecB™), V40A/L42A/L44A (natural protein)
chain: MSEQNNTEMTFQIQRIYTKDISFEAPNAPHVFQKDWQPEAKADADTASSQLADDVYEVVLRVTVTASLGEETAFLCEVQQGGIFSIAGIEGTQMAHCLGAYCPNILFPYARECITSMVSRGTFPQLNLAPVNFDALFMNYLQQQAGEGTEEHQ
B4: MBP^67–99 (domain or fragment)
chain: not shown
B5: MBP^331–396 (domain or fragment)
chain: not shown
B6: MBP^160–201 (domain or fragment)
chain: not shown
B7: MBP^97–164 (domain or fragment)
chain: not shown
B8: MBP^260–336 (domain or fragment)
chain: not shown
B9: MBP^29–99 (domain or fragment)
chain: not shown

The data set “SecB” has as its target B2. Description: NMR titration.
The data set “NMR structure” concerns the molecule itself. Description: NMR structure.
Data set [1] addresses maltose binding protein (MBP), MBP^1–396 (E. coli, UniProt P0AEX9 1-396 = MBP). The data set can be described thus: SEC-MALS. A general note: SEC sorts molecules by how far they enter the pores of the column.
In data set [2] the target is T1, alkaline phosphatase (PhoA) (E. coli, UniProt P00634 1-471 = phosphatase). The data set can be described thus: SEC-MALS.
Data set [3] has as its target T1, alkaline phosphatase (PhoA). Description: ITC. A general note: ITC needs no label: the signal is the heat of the interaction.

Take B1: the binding result with SecB is reported as “binds”.
As for B2, in “NMR structure”, the binding result is on record as “binds”. The results for the “stoichiometry N” value in data set [1] and in data set [2] were 1 SecB:MBP and 1 SecB:PhoA, respectively.
Take B3: in data set [3], the “fold reduction in affinity against wild type SecB” value came to 40 fold.
For the molecule B4, in the data set with SecB, the binding result is listed as “binds”.
In the case of B5, the binding result in the data set with SecB is given as “binds”.
Same read-out and setting: for B6 the value was “binds”.
As for B7, the binding result with SecB was “binds”.
Still for that read-out and setting: for B8 the value was “binds”; for B9, “binds”.

Source of the values: paper PMC5161705 (Nature, 2016).
